The values below come from article PMC3950950, “Fluorescent sensors for activity and regulation of the nitrate transceptor CHL1/NRT1.1 and oligopeptide transporters” (eLife, 2014).

Substrate in this data set: O=[N+]([O-])O
Briefly: fluorescence response (donor quenching) of sensor in yeast, plate reader. The data set is classed as cell-based, Arabidopsis thaliana. The settings on record: 50 mM MES pH 5.5, monophasic low-affinity response, excitation 428 nm.

B1: NiTrac1 (CHL1/NRT1.1/NPF6.3 fusion) (Arabidopsis thaliana; T101A) (protein)
chain: MSLPETKSDDILLDAWDFQGRPADRSKTGGWASAAMILCIEAVERLTTLGIGVNLVTYLTGTMHLGNATAANTVTNFLGTSFMLCLLGGFIADTFLGRYLAIAIFAAIQATGVSILTLSTIIPGLRPPRCNPTTSSHCEQASGIQLTVLYLALYLTALGTGGVKASVSGFGSDQFDETEPKERSKMTYFFNRFFFCINVGSLLAVTVLVYVQDDVGRKWGYGICAFAIVLALSVFLAGTNRYRFKKLIGSPMTQVAAVIVAAWRNRKLELPADPSYLYDVDDIIAAEGSMKGKQKLPHTEQFRSLDKAAIRDQEAGVTSNVFNKWTLSTLTDVEEVKQIVRMLPIWATCILFWTVHAQLTTLSVAQSETLDRSIGSFEIPPASMAVFYVGGLLLTTAVYDRVAIRLCKKLFNYPHGLRPLQRIGLGLFFGSMAMAVAALVELKRLRTAHAHGPTVKTLPLGFYLLIPQYLIVGIGEALIYTGQLDFFLRECPKGMKGMSTGLLLSTLALGFFFSSVLVTIVEKFTGKAHPWIADDLNKGRLYNFYWLVAVLVALNFLIFLVFSKWYVYKEKRLAEVGIELDDEPSIPMGH
notes: full-length ORF between N-terminal Aphrodite t9 (yellow FP) and C-terminal mCerulean (pDRFlip30); expressed in yeast BJ5465; intact cells
On to B1, for which the Km – broadly, the concentration of substrate that gives half-maximal velocity – was 3.5 ± 3.7 mM.
